In patent US20230374088A1:

Target: T1, Gli2-ZF-SNAP (human), P10070
T1 chain: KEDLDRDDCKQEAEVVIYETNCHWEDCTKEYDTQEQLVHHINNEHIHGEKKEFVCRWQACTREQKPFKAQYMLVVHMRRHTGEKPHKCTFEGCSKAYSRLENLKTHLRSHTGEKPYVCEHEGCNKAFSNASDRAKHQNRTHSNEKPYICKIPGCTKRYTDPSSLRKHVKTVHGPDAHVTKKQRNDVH
Assay: TIRF microscopy; 100 nM Gli2-ZF-SNAP-Alexa647 with 100 nM kinesin on microtubules
Conditions: remark: other sources report otherwise

- fold Gli2-ZF Alexa-647 intensity on microtubules over Gli alone: 3 fold
B1: Kif7-MM (monomeric Kif7 motor domain, 1-386aa), Q2M1P5 1-386 (protein)
chain: MGLEAQRLPGAEEAPVRVALRVRPLLPKELLHGHQSCLQVEPGLGRVTLGRDRHFGFHVVLAEDAGQEAVYQACVQPLLEAFFEGFNATVFAYGQTGSGKTYTMGEASVASLLEDEQGIVPRAMAEAFKLIDENDLLDCLVHVSYLEVYKEEFRDLLEVGTASRDIQLREDERGNVVLCGVKEVDVEGLDEVLSLLEMGNAARHTGATHLNHLSSRSHTVFTVTLEQRGRAPSRLPRPAPGQLLVSKFHFVDLAGSERVLKTGSTGERLKESIQINSSLLALGNVISALGDPQRRGSHIPYRDSKITRILKDSLGGNAKTVMIACVSPSSSDFDETLNTLNYASRAQNIRNRATVNWRPEAERPPEETASGARGPPRHRSETRIIH
modifications: here or on the partner: Alexa 647 dye on the SNAP tag in the TIRF assays
